In a protein production outcome set (Wang et al. 2014):

Test: label from the status in PepcDB records

Sequence	protein production
MANAKPVCSLFHSTFHDGIASVFHRSFSFPLLLILLIAFSGSGYANSSKETRAAARSESAGKTVSSRWAKGRLLVIPRAGLTAMEFDKATKPYGVKSRRRLNGLNAHVYELPDGVDEVKVLDKLKKDRRFKAVELDRLVEPAQVVTDPAFGNSWALPKIQAPAAWDIATGDGITIAILDTGVDGTHPDLAANMLPGWNAYDNNTDTSDIYGHGTKVAGTAAAVANNGAGSSGLAWNARILPVRISMPDGRAYLSDMAKGIRWAADNGARIANISYGGAESLTVQSAANYMRSKGGVVVMSAGNSGGLNNFPASNAIIVASATDSKDARASWSSYGPYVDVAAPGVSIYTTIRGGGYGYVSGTSFSSPIVAAAAALLFSINPDLAPTDIDQMLTATAQDLGNAGYDQYYGHGRINAASAVNAAHARISVDRTAPLISIASPTGGTVSGSVPVDVNYSDNKGVVRVDLYVNGRKTIEDTQPPFAFAWDTTTLANGSYTLVAYAFDAAGNQGTSSTVNVTVKNTVADTTPPTISITSPAGGAVVLGSVPVNVNSSDNIGVVRTELHVNGKKVMEGTGSSFVWDTKSLADGNYTLVAYAFDAAGNQGASSPVAVSVKNTGTTTNTEPLPQINSFNLRDGQNVSRNQNIRVTADRNTRKINLKINGGIIAAANGNSLSYRWNTSAIPKNSNITVTAEAFNAKGDATSRTVTVRN	failed
MANEDCPKAADSPFSSDKHAQLILAQINKMRNGQHFCDVQLQVGQESFKAHRLVLAASSPYFAALFTGGMKESSKDVVPILGIEAGIFQILLDFIYTGIVNIGVNNVQELIIAADMLQLTEVVHLCCEFLKGQIDPLNCIGIFQFSEQIACHDLLEFSENYIHVHFLEVHSGEEFLALTKDQLIKILRSEELSIEDEYQVFLAAMQWILKDLGKRRKHVVEVLDPIRFPLLPPQRLLKYIEGVSDFNLRVALQTLLKEYCEVCKSPKENKFCSFLQTSKVRPRKKARKYLYAVGGYTRLQGGRWSDSRALSCVERFDTFSQYWTTVSSLHQARSGLGVTVLGGMVYAIGGEKDSMIFDCTECYDPVTKQWTTVASMNHPRCGLGVCVCYGAIYALGGWVGAEIGNTIERFDPDENKWEVVGNMAVSRYYFGCCEMQGLIYVIGGISNEGIELRSFEVYDPLSKRWSPLPPMGTRRAYLGVAALNDCIYSVGGWNETQDALHTVEKYSFEEEKWVEVASMKVPRAGMCVVAVNGLLYVSGGRSSSHDFLAPGTLDSVEVYNPHSDTWTEIGNMITSRCEGGVAVL	failed
MANGRIEKIGQQLTTPSGYQVLDATGKHVTAGIVDEHSHIAINGGTNEGTDAVTAEVRIGDVINPEDVSIYRALAGGVTSAQLLHGSANPIGGQSQLIKMKWGESAEQLKFANAPASIKFALGENVKQSNWGEKFVQRFPQTRMGVKALFEETFDAALAYENALKDYDDLRSSEKKKTLAPRPSYRLQAVAEVLKQQRDVHIHSYVQSEILMFLRLAEAYRFKVQTFTHVLEGYKVASELAAHGAGASTFADWWAYKFEVYDAIPQNACLMQKQGVLTSINSDDYEMQRRLNQEAAKSMMYCGMSKEDAWNMVTIYPAKQLRVDEYVGSLTPGKMADIVLWNAEPLSIYAKVTHAWVEGKRYFDREQDQLAQQQVVTERAALIQKILSSDDNAKAGEKVTPLNEPQWHCDTHYQAWGQHHQGAK	failed
MANITFSSPVMAKDVTVYAVAGDRGTILAVAKSHSIPIPFDCQDGECGSCLVQVEHFNPKAKAAVALTEKEKEVLRQLGKITKEEIVDAEVNDIPPRYRLACQCFVRNEDILVKFEGDKTKPQRLAVTPAAAHYKGGMEINTPQEFFSYAAKVEEDAALHYDSLAKAMADAGNAPVAKLFAQLAEFSRLHLAEVKSRAGSIDLSKSVPPDYAWPDHATPERAAVWASDTTLTRLGALKAALQGERRGYEFYRAVEATTKSSEVAAAAKEFVNEEAEHVRILEAWITQEEWSLKHAAKAAENA	failed
MANKKIDHREEAIELLKQDAKRILQLIKVQMDNLTLPQCPAYEEVLDTQMYGLSREINFATRLGLIEPEEGKKLISTLEKELSALHELSMSKK	not failed
MANKKNKVKFNICNVHYAPITVADEGKVSFGTPVAMPGAVSISMDPTGEPESFYADGIEYYVINNNQGYDGDLELAMIPETFRTDILKEEADSNNVLVENANSETGSFALLFEFDGDIRKIRHVLYNCSASRPTIESKTNEEDKEVQTETLTIKARPMADGYVKAKTGDSTTDTVYNNWYKSVYLPNSLEHHHHHH	failed
MANLAASTCLYSWLLVLLLSSVSAIIDEDTQVYIVYMGSLSSRADYIPTSDHMSILQQVTGESSIEGRLVRSYKRSFNGFAARLTESERTLIAEIEGVVSVFPNKILQLHTTTSWDFMGVKEGKNTKRNLAIESDTIIGVIDTGIWPESKSFSDKGFGPPPKKWKGVCSGGKNFTCNNKLIGARDYTSEGTRDTSGHGTHTASTAAGNAVKDTSFFGIGNGTVRGGVPASRIAAYKVCTDSGCSSEALLSSFDDAIADGVDLITISIGFQFPSIFEDDPIAIGAFHAMAKGILTVSSAGNSGPKPTTVSHVAPWIFTVAASTTNRGFITKVVLGNGKTLAGRSVNAFDMKGKKYPLVYGKSAASSACDAKTAALCAPACLNKSRVKGKILVCGGPSGYKIAKSVGAIAIIDKSPRPDVAFTHHLPASGLKAKDFKSLVSYIESQDSPQAAVLKTETIFNRTSPVIASFSSRGPNTIAVDILKPDITAPGVEILAAFSPNGEPSEDDTRRVKYSVFSGTSMACPHVAGVAAYVKTFYPRWSPSMIQSAIMTTAWPVKAKGRGIASTEFAYGAGHVDPMAALNPGLVYELDKADHIAFLCGMNYTSKTLKIISGDTVKCSKKNKILPRNLNYPSMSAKLSGTDSTFSVTFNRTLTNVGTPNSTYKSKVVAGHGSKLSIKVTPSVLYFKTVNEKQSFSVTVTGSDVDSEVPSSANLIWSDGTHNVRSPIVVYIMVVDEA	failed
MANLPTVLVTGASGRTGQIVYKKLKEGSDKFVAKGLVRSAQGKEKIGGEADVFIGDITDADSINPAFQGIDALVILTSAVPKMKPGFDPTKGGRPEFIFEDGQYPEQVDWIGQKNQIDAAKVAGVKHIVVVGSMGGTNPDHPLNKLGNGNILVWKRKAEQYLADSGTPYTIIRAGGLLDKEGGVRELLVGKDDELLQTDTKTVPRADVAEVCIQALLFEEAKNKAFDLGSKPEGTSTPTKDFKALFSQVTSRF	not failed
MANNELQIAGSQGELRIRPYEHHAKYYETDQMGIIHHSNYVKWMEEARLDLMDQIGLNYRQMEDMEIISPVLSISVEYHSMVHFDDTVVIYTKLLKYNGIKMELEYVMKDKETGELRTTAKSSHCFLNKSGKPISLKRMYPELDTKFFEFKEA	failed
MANPPSQEADHLVEAFRYTVAKLFLQQAQKDHLKADKEAIFVLSELLLGYIEILTADLEAFCRHGKRTTITADDVLLCCRRNENLVSRHMLINRAAAEISSFP	failed
MANRQRGVALIIVLMLLAIMATIAATMSERLFLQFQRGSNQIHYQQAYWYSVGVEALAEVGIEQSYKDSDTINLSQPWAIKEQVYPLDYGQAAGRIWDKQACFNLNVLSRVQPTGQQTTRPYLVQVLQRLLEESDVEPYQAEVIADSTWEYIDSDSTVRSTTGVEDSTYESMKPSYLAANGWMADKTELRAVYQVSGEIYQKIEPLVCAIPSDDWRLNVNTIEVEQAPILVAMFSPNLSSSDAVQLIEKRPFDGWDSVDEFLAESELTGLSDDVKKNAKGYLGVDSSFFELDAQVLVDDSRVRIRSLLQSTNRETVTVVRRRFGGISERVSDRSAE	failed
MANVFLISSRNRRSMRTTTESKPKNLTVKRSDSSSDYNYSCKKHPKHRQSPGICSLCLNESLSKLSSEFYDYSSSMSSSSLAKTMSSCSSASSESESDFSSTAISSYYSSVSSCLSPLQHRYSEIVVNKKKKKHVKKQSFLSRLFLKQRIQTKAVIGWHMTLQLAIQLMYGKRKKTCHASFIQVWY	failed
MAPAPAAEFWEARYRDTGRVWSGRPNELLVQEAGGLAPGTALDLGCGEGADAVWLASRGWRVTGVDISATALERAAGHADGAGVGDRVLWERHELGPSFPEGSFDLVSAHYLQSPVALDQQAVLRAAARAVAPGGTLLVVMHAGWPSWQTEPPFDAAFPTLDGVLAELALPEGEWSVETRRTARRPLEHHHHHH	failed
MAPAPAAEFWEARYRDTGRVWSGRPNELLVQEAGGLAPGTALDLGCGEGADAVWLASRGWRVTGVDISATALERAAGHADGAGVGDRVLWERHELGPSFPEGSFDLVSAHYLQSPVALDQQAVLRAAARAVAPGGTLLVVMHAGWPSWQTEPPFDAAFPTLDGVLAELALPEGEWSVETRRTARRPSVAPDGTEGFREDHVWRLKRAVLEHHHHHH	not failed
MAPIFRNYRFAIGAFAVIMLILLIKTSSIGPPSIARTVTPNASIPKTPEDISILPVNDEPGYLQDSKTEQNYPELADAVKSQTSQTCSEEHKYVIMIDAGSTGSRVHIYKFDVCTSPPTLLDEKFDMLEPGLSSFDTDSVGAANSLDPLLKVAMNYVPIKARSCTPVAVKATAGLRLLGDAKSSKILSAVRDHLEKDYPFPVVEGDGVSIMGGDEEGVFAWITTNYLLGNIGANGPKLPTAAVFDLGGGSTQIVFEPTFPINEKMVDGEHKFDLKFGDENYTLYQFSHLGYGLKEGRNKVNSVLVENALKDGKILKGDNTKTHQLSSPCLPPKVNATNEKVTLESKETYTIDFIGPDEPSGAQCRFLTDEILNKDAQCQSPPCSFNGVHQPSLVRTFKESNDIYIFSYFYDRTRPLGMPLSFTLNELNDLARIVCKGEETWNSVFSGIAGSLDELESDSHFCLDLSFQVSLLHTGYDIPLQRELRTGKKIANKEIGWCLGASLPLLKADNWKCKIQSA	failed
MAPKDQAADMDYDQTKKMVVDILKTDDGKKAIKELLNDDAMNEALVIDQDAIKGTIEKTLTSKKGEEFWKNIFEDTDFAEGFAKTLQTEHEKVIKKLMKDPDYQKMLMSVMQDPGMDKKYSQLAKSQEFRSYLEEVINETLSSPLYKKQFEDELKKAAKDTAKESELEHHHHHH	not failed
MAPLLMILAAQLLIASGNLLVKLLETNTPVFQLVLYRQLFATLLVLPFVWHLQGNLKLSPFYKVHLSRALLIGLGNAIFMLAVLHLPLATVTAVIYSSPLILLLLSAFFLNERIGYRRSVAGLIGFTGILLISQPTEVNLYIGLAFFGAMISAINSLILKAYSTHEHPFSTLFWSNAFAMVFLIPATWYEGANFSLPVAQVGLTLGVFYVGMTYLIIHAYRRADASQMAPVEYTGLIFAALLGWWFLDETLSVVVCIGIGLVIFSSLLPSYGELKAKWKSRRR	failed
MAPLSFEVRSVSVLVLVLAVSAAFCLGIGFVLQQNAAQHAPLSDFLSPRLLLDLMHVRRWLGGIGFMVVGMVLGAVALAHGELSLVEPLLATNLLFALGLSRRQTKQPLGRQGWAGLALLAGGVTAFIVAGQPTGGDAVTNPLRHWVIIGVMVGFALLLTTYAKQSRLSAAPVLLSLAAGLLYGVQDALTRVSGQRFSEGGWPELVTGWQPYAVLALGVTGLVLVQSAFETAPLRMSLPALTAAQPLAGIVCGVGFLGDQLRTDTGALAWEAAGLAAVVLGIVLLGLHPAMPRGSAEAERQRDLQPH	failed
MAPNASCLCVHVRSEEWDLMTFDANPYDSVKKIKEHVRSKTKVPVQDQVLLLGSKILKPRRSLSSYGIDKEKTIHLTLKVVKPSDEELP	failed
MAPPTAAPEPNTVPETSPTGHRMFSRIRLATPTDVPFIHKLIHQMAVFERLTHLFVATESGLASTLFNSRPFQAVTVFLLEISPSPFPTTHDASSPDFTPFLETHKVDLPIEDPDREKFLPDKLNDVVVAGFVLFFPNYPSFLAKQGFYIEDIFMREPYRRKGFGKLLLTAVAKQAVKLGVGRVEWIVIDWNVNAINFYEQMGAQVFKEWRLCRLTGDALQAIDKLNI	failed
MAPQKPVSAAQTAQHSAVWIDVRSEQEFSEGHLHNAVNIPVDQIVRRIYEAAPDKDTPVNLYCRSGRRAEAALQELKKAGYTNVANHGGYEDLLKKGLEHHHHHH	not failed
